This note sets out measurements from FireProtDB (doi:10.1110/ps.062595707).

To fix the notation:
B1: Ribose import binding protein RbsB, P02925 (parent)
chain: MNMKKLATLVSAVALSATVSANAMAKDTIALVVSTLNNPFFVSLKDGAQKEADKLGYNLVVLDSQNNPAKELANVQDLTVRGTKILLINPTDSDAVGNAVKMANQANIPVITLDRQATKGEVVSHIASDNVLGGKIAGDYIAKKAGEGAKVIELQGIAGTSAARERGEGFQQAVAAHKFNVLASQPADFDRIKGLNVMQNLLTAHPDVQAVFAQNDEMALGALRALQTAGKSDVMVVGFDGTPDGEKAVNDGKLAATIAQLPDQIGAKGVETADKVLKGEKVQAKYPVDLKLVVKQ

This data set covers variants of B1. As to conditions: Escherichia coli (strain K12); pH 7; Thermal; CD; Phosphate 5 mM; structure 2DRI; whole UniProt chain shown.

“And” between values parts separate entries of the source, which are not always exact repeats. Equal values may be shown once.

With I157A, the Tm was 57.3 °C and 61.2 °C; the “change of melting temperature, mutant - wild type (higher = more stable)” value (shortened to “change of melting temperature, mutant”) is -0.2 °C and -2.5 °C.

As to S34A I157A S128A N38A, the Tm came to 54.7 °C and the “change of melting temperature, mutant” value is -9 °C.

On to F239A, for which the Tm is 48 °C and 46 °C.

As to S34A I157A S128A, the Tm was 53.4 °C and 53.7 °C.

On to D114A, for which the Tm is 58.2 °C and 57.2 °C.

Take F40A: the Tm was 52.5 °C and 54.2 °C; the “change of melting temperature, mutant” value is -5 °C and -9.5 °C.

S34A I157A S128A N38A Q260A: the Tm came to 59 °C and the “change of melting temperature, mutant” value was -4.7 °C.

With N89A, the Tm was 52.9 °C and the “change of melting temperature, mutant” value is -4.6 °C.

Take F41A: the Tm is 58.9 °C and 57.4 °C.

On to Q260A, for which the Tm was 58.2 °C and 58.9 °C.

As for S34A I157A, the “change of melting temperature, mutant” value is -0.7 °C and 2.4 °C.

N215A: the Tm is 49.4 °C and 51.5 °C; the “change of melting temperature, mutant” value was -8.1 °C and -12.2 °C.

N38A: the Tm was 58.2 °C and 60.1 °C; the “change of melting temperature, mutant” value was 0.7 °C and -3.6 °C.

As to S128A, the Tm is 57.8 °C and 60.7 °C; the “change of melting temperature, mutant” value is 0.3 °C and -3 °C.

For the variant S34A, the “change of melting temperature, mutant” value is -1.5 °C and 0.1 °C.

Consider F189A, for which the Tm is 51.7 °C and 53.3 °C; the “change of melting temperature, mutant” value was -5.8 °C and -10.4 °C.

D240A: the Tm is 51.2 °C and 51.3 °C.

In general, Tm refers to the temperature at the midpoint of the melting transition.
